# Columns and labels:
# Hsp90Ec N347C [1] = biological target: T1, Hsp90Ec N347C (E. coli, UniProt P0A6Z3 1-624, N347C); experiment: cross-linking
# Hsp90Ec N350C [2] = biological target: T2, Hsp90Ec N350C (E. coli, UniProt P0A6Z3 1-624, N350C); experiment: cross-linking
# Hsp90Ec K199C [3] = biological target: T3, Hsp90Ec K199C (E. coli, UniProt P0A6Z3 1-624, K199C); experiment: cross-linking
# Hsp90Ec N347C [4] = biological target: T1, Hsp90Ec N347C; experiment: cross-linking; remark: listed apart in the source
# Hsp90Ec K354C = Hsp90Ec K354C (E. coli, UniProt P0A6Z3 1-624, K354C); experiment: pull-down
# Hsp90Ec K71C = Hsp90Ec K71C (E. coli, UniProt P0A6Z3 1-624, K71C); experiment: pull-down
# Hsp90Ec K103C = Hsp90Ec K103C (E. coli, UniProt P0A6Z3 1-624, K103C); experiment: pull-down
# Hsp90Ec K199C [5] = biological target: T3, Hsp90Ec K199C; experiment: pull-down
# Hsp90Ec K99C = Hsp90Ec K99C (E. coli, UniProt P0A6Z3 1-624, K99C); experiment: pull-down
# Hsp90Ec Q358C = Hsp90Ec Q358C (E. coli, UniProt P0A6Z3 1-624, Q358C); experiment: pull-down
# Hsp90Ec K560C = Hsp90Ec K560C (E. coli, UniProt P0A6Z3 1-624, K560C); experiment: pull-down
# Hsp90Ec K45C = Hsp90Ec K45C (E. coli, UniProt P0A6Z3 1-624, K45C); experiment: pull-down
# Hsp90Ec K492C = Hsp90Ec K492C (E. coli, UniProt P0A6Z3 1-624, K492C); experiment: pull-down
# Hsp90Ec L493C = Hsp90Ec L493C (E. coli, UniProt P0A6Z3 1-624, L493C); experiment: pull-down
# Hsp90Ec N347C [6] = biological target: T1, Hsp90Ec N347C; experiment: pull-down
# Hsp90Ec N350C [7] = biological target: T2, Hsp90Ec N350C; experiment: pull-down
# Hsp90Ec K502C = Hsp90Ec K502C (E. coli, UniProt P0A6Z3 1-624, K502C); experiment: pull-down
# Hsp90Ec wild-type = Hsp90Ec wild-type (E. coli, UniProt P0A6Z3 1-624); experiment: BLI
binder,measurement,setting,value
"CbpA J-domain A44C (domain or fragment, E. coli, UniProt P36659 1-78, looked up) MELKDYYAIMGVKPTDDLKTIKTAYRRLARKYHPDVSKEPDAECRFKEVAEAWEVLSDEQRRAEYDQMWQHRNDPQFN",binding result,Hsp90Ec N347C [1],binds
same,binding result,Hsp90Ec N350C [2],binds
"wild type CbpA J-domain fragment (residues 1-78) (domain or fragment, E. coli, UniProt P36659 1-78, looked up) MELKDYYAIMGVKPTDDLKTIKTAYRRLARKYHPDVSKEPDAEARFKEVAEAWEVLSDEQRRAEYDQMWQHRNDPQFN",binding result,Hsp90Ec K199C [3],binds
same,binding result,Hsp90Ec N347C [4],binds
"biotin-labeled CbpA (natural protein, E. coli, UniProt P36659 1-306, looked up, biotin label (site not stated)) MELKDYYAIMGVKPTDDLKTIKTAYRRLARKYHPDVSKEPDAEARFKEVAEAWEVLSDEQRRAEYDQMWQHRNDPQFNRQFHHGDGQSFNAEDFDDIFSSIFGQHARQSRQRPATRGHDIEIEVAVFLEETLTEHKRTISYNLPVYNAFGMIEQEIPKTLNVKIPAGVGNGQRIRLKGQGTPGENGGPNGDLWLVIHIAPHPLFDIVGQDLEIVVPVSPWEAALGAKVTVPTLKESILLTIPPGSQAGQRLRVKGKGLVSKKQTGDLYAVLKIVMPPKPDENTAALWQQLADAQSSFDPRKDWGKA",binding result,Hsp90Ec K354C,binds
same,binding result,Hsp90Ec K71C,binds
same,binding result,Hsp90Ec K103C,binds
same,binding result,Hsp90Ec K199C [5],binds
same,binding result,Hsp90Ec K99C,binds
same,binding result,Hsp90Ec Q358C,binds
same,binding result,Hsp90Ec K560C,binds
same,binding result,Hsp90Ec K45C,binds
same,binding result,Hsp90Ec K492C,binds
same,binding result,Hsp90Ec L493C,binds
same,binding result,Hsp90Ec N347C [6],binds
same,binding result,Hsp90Ec N350C [7],binds
same,binding result,Hsp90Ec K502C,binds
same,Kd,Hsp90Ec wild-type,11 ± 0.9 µM
